# From publication PMC11058820
# B1: KRAS_(8–16)^WT peptide (peptide)
# peptide: VVGAGGVGK
# Target: HLA-A*11:01 monomer (commercial, biotinylated, preloaded with a UV-sensitive peptide that is destroyed by UV) (human)
# Experiment: ELISA; UV-mediated peptide exchange: 25 μM peptide in PBS mixed 1:1 with […] biotinylated UV-sensitive HLA-A*11:01 monomer on ice, 366 nm UV 30 min; stable monomers captured on streptavidin plates and detected with HRP anti-human β2-microglobulin; result as percentage of positive signal against positive and negative control peptides
binder,measurement,value
B1,percentage of positive signal,46.6%
